Assay results reported in patent publication US20140314793A1 (BIOINVENT INTERNATIONAL, published 2014).

Experiments:
[1] = molecular target: T1, intercellular cell adhesion molecule-1 (ICAM-1) on the surface of human cells (human, UniProt P05362 28-532); assay: FACS of bone marrow cells, patient 2
T1 construct: whole, on cells; Endogenous antigen; also called CD54

[2] = molecular target: T1, intercellular cell adhesion molecule-1 …; assay: FACS of bone marrow cells, patient 15
[3] = molecular target: T1, intercellular cell adhesion molecule-1 …; assay: FACS of bone marrow cells, patient 16
[4] = molecular target: T1, intercellular cell adhesion molecule-1 …; assay: FACS of bone marrow cells, patient 20
[5] = molecular target: T1, intercellular cell adhesion molecule-1 …; assay: FACS of bone marrow cells, patient 21
[6] = molecular target: T1, intercellular cell adhesion molecule-1 …; assay: FACS of tumor cells incubated with serially diluted AF647-BI-505 after FcγR pre-block with human IgG (receptor occupancy)
Protocol: The experiment was repeated three times and mean MFI values were calculated and plotted as a function of antibody concentration. […] The curve was fitted using a five-parameter log-log curve and XLfit software. […] Cells received treatment in triplicate and the experiment was repeated three to five times. […] In vitro PCD and in vivo anti-tumor activity were plotted as a function of receptor occupancy using curve fitting equations and data generated and described above.

[7] = molecular target: T1, intercellular cell adhesion molecule-1 …; assay: 125I-IgG saturation binding, Rosenthal-Scatchard plot (legend of FIG. 5; Ramos cells in the panels, 'Raji cells' at the end of the sentence); legend of FIG. 5; Ramos cells (right panels, IgG B11), though the sentence ends '(Raji cells)'
Protocol: Analysis was performed in triplicates.
Antibody affinity constants (Kd values) and epitope numbers per cell were determined from Scatchard plot analysis according to Rosenthal et al. (Anal. Biochem. (1967) 20:525-532); Bylund and Yamamura (Methods in Neurotransmitter Analysed, New York: Raven Press Ltd., 1990); and Marquardt (J. Soc. Indust. Appl. Math. (1963) 11:431-441), as previously described (Brix et al., J. Clin. Invest. (1998) 102:283-293).
The specific binding of [¹²⁵I]IgG to the cell surface was calculated by subtracting non-specific binding (binding in the presence of excess unlabelled IgG) from the total binding.

[8] = molecular target: T1, intercellular cell adhesion molecule-1 …; assay: FACS of bone marrow cells, patient 12
[9] = molecular target: T2, ICAM-3 (recombinant) (UniProt P32942 30-485, limits assumed); assay: dose-dependent binding to recombinant protein (FIG. 12C b)
T2 sequence (looked up): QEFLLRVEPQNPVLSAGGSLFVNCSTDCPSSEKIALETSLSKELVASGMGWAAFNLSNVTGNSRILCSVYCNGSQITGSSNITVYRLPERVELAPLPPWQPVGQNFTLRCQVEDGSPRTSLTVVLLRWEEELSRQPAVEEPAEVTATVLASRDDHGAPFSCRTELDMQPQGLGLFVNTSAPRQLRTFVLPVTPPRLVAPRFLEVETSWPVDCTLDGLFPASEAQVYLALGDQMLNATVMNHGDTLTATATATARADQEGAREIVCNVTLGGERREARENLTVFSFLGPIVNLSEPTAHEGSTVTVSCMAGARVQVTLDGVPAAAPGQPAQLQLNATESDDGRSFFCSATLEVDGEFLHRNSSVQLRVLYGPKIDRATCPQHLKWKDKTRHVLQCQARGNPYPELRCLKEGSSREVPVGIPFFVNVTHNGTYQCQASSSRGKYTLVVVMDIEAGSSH

[10] = molecular target: T3, ICAM-2 (recombinant) (UniProt P13598 25-223, limits assumed); assay: as above
T3 sequence (looked up): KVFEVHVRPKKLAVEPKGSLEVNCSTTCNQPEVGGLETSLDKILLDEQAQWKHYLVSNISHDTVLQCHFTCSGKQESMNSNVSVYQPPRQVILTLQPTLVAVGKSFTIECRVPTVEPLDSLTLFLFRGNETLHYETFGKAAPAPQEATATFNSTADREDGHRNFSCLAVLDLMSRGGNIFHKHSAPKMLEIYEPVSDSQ

[11] = molecular target: T1, intercellular cell adhesion molecule-1 …; assay: FACS of bone marrow cells, patient 17
[12] = molecular target: T1, intercellular cell adhesion molecule-1 …; assay: FACS of bone marrow cells, patient 7
[13] = molecular target: T4, recombinant ICAM-1 (UniProt P05362 28-480); assay: ELISA on recombinant ICAM-1, luminescence
T4 construct: also called recombinant ICAM-1 protein

[14] = molecular target: T1, intercellular cell adhesion molecule-1 …; assay: FACS of bone marrow cells, patient 11
[15] = molecular target: T1, intercellular cell adhesion molecule-1 …; assay: FACS of bone marrow cells, patient 1
[16] = molecular target: T1, intercellular cell adhesion molecule-1 …; assay: FACS of bone marrow cells, patient 6
[17] = molecular target: T1, intercellular cell adhesion molecule-1 …; assay: FACS of bone marrow cells, patient 13
[18] = molecular target: T1, intercellular cell adhesion molecule-1 …; assay: FACS of bone marrow cells, patient 9

T1 sequence (P05362 28-532): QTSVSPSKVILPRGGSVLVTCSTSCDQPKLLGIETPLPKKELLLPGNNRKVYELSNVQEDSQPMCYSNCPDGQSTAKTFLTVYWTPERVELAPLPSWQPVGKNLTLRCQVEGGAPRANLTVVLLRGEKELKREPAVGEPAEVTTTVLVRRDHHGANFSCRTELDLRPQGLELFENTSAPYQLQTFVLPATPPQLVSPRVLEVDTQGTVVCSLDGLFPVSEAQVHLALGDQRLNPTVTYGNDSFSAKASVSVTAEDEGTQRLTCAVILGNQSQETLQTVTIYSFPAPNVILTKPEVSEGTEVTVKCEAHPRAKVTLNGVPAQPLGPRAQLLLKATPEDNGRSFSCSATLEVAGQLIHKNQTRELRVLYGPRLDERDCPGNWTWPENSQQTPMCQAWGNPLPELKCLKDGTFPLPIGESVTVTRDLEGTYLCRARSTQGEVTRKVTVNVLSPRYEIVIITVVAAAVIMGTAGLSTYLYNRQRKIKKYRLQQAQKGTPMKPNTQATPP
T4 sequence (P05362 28-480 limits assumed): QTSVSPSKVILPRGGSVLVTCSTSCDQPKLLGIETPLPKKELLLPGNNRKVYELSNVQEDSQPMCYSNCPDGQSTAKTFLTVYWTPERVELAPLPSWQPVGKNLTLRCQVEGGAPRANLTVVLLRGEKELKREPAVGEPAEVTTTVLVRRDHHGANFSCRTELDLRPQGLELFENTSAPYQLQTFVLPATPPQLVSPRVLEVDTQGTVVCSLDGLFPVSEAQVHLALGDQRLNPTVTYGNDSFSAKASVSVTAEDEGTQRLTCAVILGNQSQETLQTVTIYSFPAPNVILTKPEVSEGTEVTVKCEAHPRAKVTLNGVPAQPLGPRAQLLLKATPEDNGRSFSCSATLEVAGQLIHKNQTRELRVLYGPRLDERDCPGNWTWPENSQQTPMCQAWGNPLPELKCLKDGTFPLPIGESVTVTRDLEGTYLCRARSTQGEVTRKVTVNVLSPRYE

B1: B11 IgG1 (BI-505), fully human anti-ICAM-1 antibody (antibody, V domains shown)
VH: EVQLLESGGGLVQPGGSLRLSCAASGFTFSNAWMSWVRQAPGKGLEWVAFIWYDGSNKYYADSVKGRFTISRDNSKNTLYLQMNSLRAEDTAVYYCARYSGWYFDYWGQGTLVTVSS
VL: QSVLTQPPSASGTPGQRVTISCTGSSSNIGAGYDVHWYQQLPGTAPKLLIYDNNNRPSGVPDRFSGSKSGTSASLAISGLRSEDEADYYCQSYDSSLSAWLFGGGTKLTVL
notes: That 6 is VH and 8 is VL follows only from the order 'VH and VL'; also called IgG B11
fold increase of BI-505 epitope on MM cells compared to normal B cells [1]: 8 fold
fold increase of BI-505 epitope on MM cells compared to normal B cells [2]: 27 fold
fold increase of BI-505 epitope on MM cells compared to normal B cells [3]: 3 fold
fold increase of BI-505 epitope on MM cells compared to normal B cells [4]: 27 fold
fold increase of BI-505 epitope on MM cells compared to normal B cells [5]: 4 fold
EC50 (read off the curve) [6]: ~0.4 µg/mL
Kd [7]: ~0.3 nM
fold increase of BI-505 epitope on MM cells compared to normal B cells [8]: 16 fold
binding result [9]: no binding
binding result [10]: no binding
fold increase of BI-505 epitope on MM cells compared to normal B cells [11]: 11 fold
fold increase of BI-505 epitope on MM cells compared to normal B cells [12]: 45 fold
EC50 (read off the curve) [13]: ~0.3 nM
fold increase of BI-505 epitope on MM cells compared to normal B cells [14]: 10 fold
fold increase of BI-505 epitope on MM cells compared to normal B cells [15]: 55 fold
fold increase of BI-505 epitope on MM cells compared to normal B cells [16]: 9 fold
fold increase of BI-505 epitope on MM cells compared to normal B cells [17]: 47 fold
fold increase of BI-505 epitope on MM cells compared to normal B cells [18]: 18 fold
